Where two headings read alike, the source gives them in different places.
Tests used:
human insulin = human insulin (human, UniProt P01308 25-54; P01308 90-110); assay: polyreactivity ELISA
[1] = molecular target: T1, SARS-CoV-2 spike on pseudovirus or live virus (USA-WA1/2020, WT) (SARS-CoV-2, UniProt P0DTC2 14-1273); assay: cell-based or functional assay
[2] = molecular target: T2, SARS-CoV-1 spike on pseudovirus (SARS-CoV-1, UniProt P59594 14-1255); assay: cell-based or functional assay
SARS-CoV-2 RBD (RBD-2) [3] = molecular target: SARS-CoV-2 RBD (RBD-2) (SARS-CoV-2); assay: ELISA
SARS-CoV-1 RBD (RBD-1) = SARS-CoV-1 RBD (RBD-1) (SARS-CoV-1); assay: ELISA
[4] = molecular target: T1, SARS-CoV-2 spike on pseudovirus or live …; assay: cell-based or functional assay; remark: listed apart in the source
[5] = molecular target: T1, SARS-CoV-2 spike on pseudovirus or live …; assay: cell-based or functional assay; remark: listed apart in the source
SARS-CoV-2 RBD (RBD-2) [6] = molecular target: SARS-CoV-2 RBD (RBD-2) (SARS-CoV-2); assay: SPR, Fc-captured IgG
[7] = molecular target: T1, SARS-CoV-2 spike on pseudovirus or live …; assay: cell-based or functional assay; remark: listed apart in the source
[8] = molecular target: T2, SARS-CoV-1 spike on pseudovirus; assay: cell-based or functional assay; remark: listed apart in the source
SARS-CoV-2 RBD (RBD-2) [9] = molecular target: SARS-CoV-2 RBD (RBD-2) (SARS-CoV-2); assay: flow, HeLa-ACE2, mAb:RBD=4:1
[10] = molecular target: T1, SARS-CoV-2 spike on pseudovirus or live …; assay: cell-based or functional assay; remark: listed apart in the source
[11] = molecular target: T2, SARS-CoV-1 spike on pseudovirus; assay: cell-based or functional assay; remark: listed apart in the source
SARS-CoV-2 RBD (RBD-2) [12] = molecular target: SARS-CoV-2 RBD (RBD-2) (SARS-CoV-2); assay: flow, HeLa-ACE2, mAb:RBD=2:1
[13] = molecular target: T3, SARS-CoV-2 RBD (residue 332-527) (SARS-CoV-2, UniProt P0DTC2 332-527); assay: ELISA on truncated S constructs
T3 construct: range 332-527

Chain of human insulin (P01308 25-54 limits assumed, chain 1 of 2): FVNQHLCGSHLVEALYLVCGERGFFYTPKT
Chain of human insulin (P01308 90-110 limits assumed, chain 2 of 2): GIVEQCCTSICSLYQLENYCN

B1: L6.P4A3.10 (antibody, V domains shown)
VH: QVQLVQSGAEVKKPGSSVKVSCKAPGGTFSSSAISWVRQAPGQGLEWMGGIIPILDITHYAQKFQGRVTITADKSTSTAFMELSSLRSEDTAVYYCALRNQWDLLVYWGQGTLVTVSS
VL: EIVLTQSPGTLSLSPGERATLSCRASQSVSSSYLAWYQQKPGQAPRLLIYGAESRATGIPDRFSGSGSGTDFTLTISRLEPEDFAVYYCQHYGSSVWTFGQGTKLEIK
- binding result (human insulin): no binding

B2: L6.dP04E05 (antibody, V domains shown)
VH: EVQLVESGGGLVQPGRSLRLSCAASGFTFDDYAMHWVRQAPGKGLEWVSGISWNSDNIGYADSVKGRFTVSRDNAKNSLYLQMNSLRAEDTALYYCTKDIHRKNDYYDILTGYYRVRYYYYAMDVWGQGTTVTVSS
VL: QSVLTQPPSASGSPGQSVTISCTGTSSDAGGYNYVSWYQQHPGKAPKLMIYEVIKRPSGVPDRFSGSKSGNTASLTVSGLQAEDEADYYCSSFAGTSVVFGGGTKLTVL
notes: human IgG1
- PSV in HeLa-ACE2 cells IC50 [1]: 0.006 µg/mL
- live virus IC50 (HeLa-ACE2) [1]: 0.003 µg/mL
- live virus IC50 (Vero) [1]: 0.006 µg/mL
- PSV in HeLa-ACE2 cells IC50 [2]: > 25 µg/mL
- EC50 (SARS-CoV-2 RBD (RBD-2) [3]): 0.018 µg/mL
- EC50 (SARS-CoV-1 RBD (RBD-1)): > 10 µg/mL
- neutralization IC50 [4]: 0.00036 µg/mL
- fold more potent than L12.bP11A6 [5]: ~50 fold

B3: L12.cP08D07 (antibody, V domains shown)
VH: QVQLQESGPGLVKPSETLSLTCTVSGGSISSSSYYWGWIRQPPGKGLEWIGSIYYSGSTYYNPSLKSRVTISVDTSKNQFSLKLSSVTAADTAVYYCARQGDCSTTSCAYDYWGQGTLVTVSS
VL: SYELTQPPSVSVSPGQTARITCSGDALPKQYAYWYQQKPGQAPVLVIYKDSERPSGIPERFSGSSSGTTATLTISGVQAEDEADYYCQSADSSGTYLVVFGGGTKLAVL
notes: human IgG1
- Kd (SARS-CoV-2 RBD (RBD-2) [6]): 26.8 nM
- koff (SARS-CoV-2 RBD (RBD-2) [6]): 0.017 s⁻¹
- kon (SARS-CoV-2 RBD (RBD-2) [6]): 636000 M⁻¹ s⁻¹
- PSV neutralization IC50 [7]: 1.81 µg/mL
- PSV neutralization IC50 [8]: > 50 µg/mL
- % inhibition of RBD binding to hACE2 (SARS-CoV-2 RBD (RBD-2) [9]): -3.9%
- MFI (RBD binding to cell surface) (SARS-CoV-2 RBD (RBD-2) [9]): 11600
- Maximum Plateau of Neutralization [10]: 64%
- PSV neutralization IC50 [10]: 21.9 µg/mL
- PSV neutralization IC50 [11]: > 50 µg/mL
- EC50 (SARS-CoV-2 RBD (RBD-2) [3]): > 50 µg/mL
- EC50 (SARS-CoV-1 RBD (RBD-1)): > 50 µg/mL
- % inhibition of RBD binding to hACE2 (SARS-CoV-2 RBD (RBD-2) [12]): 3%
- MFI (RBD binding to cell surface) (SARS-CoV-2 RBD (RBD-2) [12]): 10800
- binding result [13]: no binding
